From US20060222643A1 (Chugai, published 2006) come the findings set out here.

No end group written: not given here.

For test [1], the target named is human Mpl expressed on BaF3 cells (BaF3-human Mpl) (human) (UniProt P40238). The experiment in a line: cell-based or functional assay.
The target in test [2] is T1, human Mpl expressed on BaF3 cells (BaF3-human Mpl) (human, UniProt P40238 26-635).
T1 sequence: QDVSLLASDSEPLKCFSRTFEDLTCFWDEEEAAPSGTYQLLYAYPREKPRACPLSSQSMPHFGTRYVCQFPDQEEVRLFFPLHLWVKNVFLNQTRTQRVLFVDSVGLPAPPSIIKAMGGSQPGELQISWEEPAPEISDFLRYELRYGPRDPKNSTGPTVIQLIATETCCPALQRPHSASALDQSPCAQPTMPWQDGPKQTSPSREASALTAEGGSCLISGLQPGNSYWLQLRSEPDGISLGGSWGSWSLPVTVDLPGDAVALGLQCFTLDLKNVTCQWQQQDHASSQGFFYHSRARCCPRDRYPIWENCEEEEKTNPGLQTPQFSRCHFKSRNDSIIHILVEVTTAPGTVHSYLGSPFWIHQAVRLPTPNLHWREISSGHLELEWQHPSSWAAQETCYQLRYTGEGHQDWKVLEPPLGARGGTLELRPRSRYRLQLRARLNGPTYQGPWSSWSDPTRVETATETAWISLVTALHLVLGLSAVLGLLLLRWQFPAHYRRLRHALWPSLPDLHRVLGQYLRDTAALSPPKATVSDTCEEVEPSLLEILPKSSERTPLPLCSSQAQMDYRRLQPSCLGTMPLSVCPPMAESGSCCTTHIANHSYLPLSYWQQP
Kind of test: cell-based or functional assay.

The target in test [3] is T2, mouse Mpl expressed on CHO cells (CHO-mouse Mpl) (mouse, UniProt Q08351 26-625).
T2 construct: whole, on cells; pCXND3-mouse Mpl-His in CHO-DG44; also called mouse Mpl-His
T2 sequence (looked up): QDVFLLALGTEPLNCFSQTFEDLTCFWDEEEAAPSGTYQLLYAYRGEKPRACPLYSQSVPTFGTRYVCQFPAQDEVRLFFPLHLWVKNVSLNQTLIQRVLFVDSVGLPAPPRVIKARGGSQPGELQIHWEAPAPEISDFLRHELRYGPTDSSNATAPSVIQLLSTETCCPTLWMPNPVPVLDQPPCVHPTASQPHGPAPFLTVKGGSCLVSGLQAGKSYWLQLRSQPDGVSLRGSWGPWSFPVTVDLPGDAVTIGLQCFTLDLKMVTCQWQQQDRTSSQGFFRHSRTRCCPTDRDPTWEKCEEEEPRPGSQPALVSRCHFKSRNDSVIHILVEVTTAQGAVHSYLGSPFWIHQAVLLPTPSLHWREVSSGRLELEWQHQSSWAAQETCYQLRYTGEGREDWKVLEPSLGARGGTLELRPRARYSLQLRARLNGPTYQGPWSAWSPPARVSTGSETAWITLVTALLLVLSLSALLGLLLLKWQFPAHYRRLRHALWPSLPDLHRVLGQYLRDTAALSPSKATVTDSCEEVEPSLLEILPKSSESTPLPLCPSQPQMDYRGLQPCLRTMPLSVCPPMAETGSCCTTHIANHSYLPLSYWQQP
Kind of test: flow cytometry on CHO-mouse Mpl cells; COS7 culture supernatant; detection with anti-FLAG M2 antibody and FITC-labeled anti-mouse IgG. The method, then:
(§1) CHO-human Mpl, CHO-monkey Mpl, and CHO-mouse Mpl cells were recovered and suspended in FACS buffer (1% FBS/PBS) to a final concentration of 1×10⁶ cells/mL. Cell suspensions were aliquoted at 100-μL/well into the Multiscreen-HV Filter Plates (Millipore). After centrifugation, the supernatant was removed. An appropriate concentration of diabody or sc(Fv)2 was added into each well and incubated on ice for 30 min. The cells were washed once with 200 μL of FACS buffer, and incubated on ice for 30 min following the addition of 10 μg/mL ANTI-FLAG® M2 Monoclonal Antibody (Sigma-Aldrich). The cells were then washed once with 200 μL of FACS buffer, and a 100×-diluted FITC-labeled anti-mouse IgG antibody (Beckman Coulter) was added to the plate. The plate was incubated on ice for 30 min. After centrifugation, the supernatant was removed. The cells were suspended in 400 μL of FACS Buffer, and then analyzed by flow cytometry using EPICS ELITE ESP (Beckman Coulter). An analysis gate was set on the forward and side scatters of a histogram to include viable cell populations.
(§2) The binding activities of the diabodies were assessed by flow cytometry using CHO cells that express Mpl derived from various species (FIG. 8). AB317 was proven to bind to CHO-mouse Mpl.

The target of test [4] is T3, cynomolgus monkey Mpl expressed on CHO cells (CHO-monkey Mpl) (cynomolgus monkey, UniProt P40238 26-635 (human entry)).
T3 construct: pCXND3-monkey Mpl-His in CHO-DG44; also called monkey Mpl-His
T3 chain: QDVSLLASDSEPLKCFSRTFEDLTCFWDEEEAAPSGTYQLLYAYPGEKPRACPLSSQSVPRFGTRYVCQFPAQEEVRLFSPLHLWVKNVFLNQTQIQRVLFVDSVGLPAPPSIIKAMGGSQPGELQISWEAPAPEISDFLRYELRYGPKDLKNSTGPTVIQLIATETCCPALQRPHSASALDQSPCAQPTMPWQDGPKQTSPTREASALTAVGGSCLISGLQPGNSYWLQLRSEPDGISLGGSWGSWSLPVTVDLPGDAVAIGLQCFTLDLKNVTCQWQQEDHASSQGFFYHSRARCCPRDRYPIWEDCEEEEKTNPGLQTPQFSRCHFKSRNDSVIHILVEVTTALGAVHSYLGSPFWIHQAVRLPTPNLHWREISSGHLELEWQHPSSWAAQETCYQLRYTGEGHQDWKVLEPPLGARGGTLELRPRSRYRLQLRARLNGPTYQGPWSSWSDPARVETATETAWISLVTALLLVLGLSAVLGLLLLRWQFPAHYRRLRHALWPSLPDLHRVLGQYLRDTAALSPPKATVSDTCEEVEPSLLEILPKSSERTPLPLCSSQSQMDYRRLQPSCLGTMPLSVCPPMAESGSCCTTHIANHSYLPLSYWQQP
The experiment in a line: flow cytometry on CHO-monkey Mpl cells; COS7 culture supernatant; detection with anti-FLAG M2 antibody and FITC-labeled anti-mouse IgG. The method, then: as §1, §2
(A flow cytometer gives signals particle by particle.)

Test [5] concerns the target T3, cynomolgus monkey Mpl expressed on CHO …. The experiment in a line: flow cytometry on CHO cells, detection by anti-FLAG M2 and FITC anti-mouse IgG. As for the experimental part:
as §1
(§3) The binding activity of the purified VB22B sc(Fv)2 to various Mpl molecules expressed in CHO cells was determined (FIG. 2).

The target in test [6] is T2, mouse Mpl expressed on CHO cells …. Described as above. The method, then:
as §1, §3

For test [7], the target named is T4, MG10 (Gln213 to Ala231)-GST fusion protein (human, also: fused with GST).
T4 construct: As MG1; also called MG10-GST fusion protein; GST fusion protein containing MG10; not shown: glutathione-S-transferase of vector pGEX-4T-3 (Amersham Biosciences)
T4 chain: QPTMPWQDGPKQTSPSREA
Kind of test: SPR, Biacore 3000, MG10-GST immobilized on CM5, Bivalent analyte model (constants as for the monovalent antibody), triplicate. As for the experimental part: The Sensor Chip CM5 (Biacore) was placed in Biacore 3000 (Biacore), and MG10-GST fusion protein was immobilized onto the chip by amine-coupling methods. HBS-EP Buffer (Biacore) was used as the running buffer, and the flow rate was 20 μL/min. 5.5 to 175.0 nM of VB22B IgG solution was prepared using HBS-EP Buffer, and injected over each of the chip surfaces for 2 min to obtain the binding region at the respective concentrations. Then, dissociation region for the 2 minutes was measured. VB22B IgG bound to the MG10-GST fusion protein on the sensor chip was removed by injecting 20 mM HCl over the sensor chip for 1 min, and the chip was recovered. Similarly, 4.7 to 150.1 nM of VB22B sc(Fv)2, 5.3 to 168.9 nM of hVB22B q-wz5 sc(Fv)2, and 4.9 to 156.8 nM of hVB22B u2-wz4 sc(Fv)2 were prepared and injected over the chip surfaces onto which MG10-GST fusion protein was immobilized, and the measurement was carried out.
All the antibodies used were bivalent antibodies, and thus the sensorgrams at each concentration were obtained in the presence of both monovalent and bivalent bindings. In this context, the reaction rate constant was determined as that for the monovalent antibody by analysis using the Bivalent analyte model of BIAevaluation ver.3.1 software (Biacore). The above analysis was carried out in triplicates for each antibody. The binding rate constant (ka), dissociation rate constant (kd), and dissociation constant (KD) were determined as those for the monovalent antibody by the procedure described above. The constants are indicated below in Table 1.

In turn, “recombinant human thrombopoietin (rhTPO, R&D) (from UniProt P40225 22-353) (ligand)” returned an agonistic activity, EC50 (growth of BaF3-human Mpl, WST-8) in test [1] of 76 pM.

B1: VB22B diabody (scFv)
scFv: QVQLQQSGPELVKPGASVKISCKASGYAFTNSWMNWVKQRPGKGLEWIGRIYPGDGETIYNGKFRVKATLTADKSSSTAYMDISSLTSEDSAVYFCARGYDDYSFAYWGQGTLVTVSAGGGGSDIVMTQAAPSIPVTPGESVSISCRSSKSLLHSNGNTYLYWFLQRPGQSPQLLIYRMSNLASGVPDRFSGSGSGTAFTLRISRVEAEDVGVYYCMQHIEYPFTFGSGTKLEIK
notes: also called VB22B db; VB22B single-chain Fv
In the case of B1, in test [2], the “TPO-like agonistic activity, EC50 (growth of BaF3-human Mpl, WST-8)” value came to 61 pM. For the same molecule, the binding result in test [3] is listed as “no binding”; in test [4], “binds”.

B2: VB22B sc(Fv)2 (scFv)
chain: QVQLQQSGPELVKPGASVKISCKASGYAFTNSWMNWVKQRPGKGLEWIGRIYPGDGETIYNGKFRVKATLTADKSSSTAYMDISSLTSEDSAVYFCARGYDDYSFAYWGQGTLVTVSAGGGGSGGGGSGGGGSDIVMTQAAPSIPVTPGESVSISCRSSKSLLHSNGNTYLYWFLQRPGQSPQLLIYRMSNLASGVPDRFSGSGSGTAFTLRISRVEAEDVGVYYCMQHIEYPFTFGSGTKLEIKGGGGSGGGGSGGGGSQVQLQQSGPELVKPGASVKISCKASGYAFTNSWMNWVKQRPGKGLEWIGRIYPGDGETIYNGKFRVKATLTADKSSSTAYMDISSLTSEDSAVYFCARGYDDYSFAYWGQGTLVTVSAGGGGSGGGGSGGGGSDIVMTQAAPSIPVTPGESVSISCRSSKSLLHSNGNTYLYWFLQRPGQSPQLLIYRMSNLASGVPDRFSGSGSGTAFTLRISRVEAEDVGVYYCMQHIEYPFTFGSGTKLEIK
notes: Single-chain (Fv)2 with 15-residue linkers, purified on anti-Flag gel (FLAG-tagged); also called murine VB22B sc(Fv)2; anti-human Mpl sc(Fv)2
For orientation: koff means the rate constant with which the complex falls apart. As usually defined, the kon is the rate constant with which the complex forms. On to B2, for which the “TPO-like agonistic activity, EC50 (growth of BaF3-human Mpl, WST-8)” value in test [2] came out at 27 pM. In addition, the binding result in test [5] is given as “binds”. In test [6], the binding result is “no binding”. In test [7], this molecule yielded a Kd of 11.7 nM, a koff of 0.00491 s⁻¹ and a kon of 423000 M⁻¹ s⁻¹.

B3: hVB22B q-wz5 sc(Fv)2 (scFv)
chain: QVQLVQSGPEVKKPGASVKVSCKASGYTFTNSWMNWVRQRPGKGLEWIGRIYPGDGETIYNGKFRVRVTITADESTSTAYMELSSLRSEDTAVYYCARGYDDYSFAYWGQGTTVTVSSGGGGSGGGGSGGGGSDIVMTQSPLSLPVTPGEPASISCRSSKSLLHSNGNTYLYWFQQKPGQAPRLLIYRMSNLASGVPDRFSGSGSGTAFTLKISRVEAEDVGVYYCMQHIEYPFTFGQGTKLEIKGGGGSGGGGSGGGGSQVQLVQSGPEVKKPGASVKVSCKASGYTFTNSWMNWVRQRPGKGLEWIGRIYPGDGETIYNGKFRVRVTITADESTSTAYMELSSLRSEDTAVYYCARGYDDYSFAYWGQGTTVTVSSGGGGSGGGGSGGGGSDIVMTQSPLSLPVTPGEPASISCRSSKSLLHSNGNTYLYWFQQKPGQAPRLLIYRMSNLASGVPDRFSGSGSGTAFTLKISRVEAEDVGVYYCMQHIEYPFTFGQGTKLEIK
notes: Humanized sc(Fv)2 without Flag tag, purified on an MG10-GST column; also called humanized VB22B sc(Fv)2 (q-wz5)
In test [7], B3 had a Kd of 13.6 nM, a koff of 0.0051 s⁻¹ and a kon of 376000 M⁻¹ s⁻¹.

B4: hVB22B u2-wz4 sc(Fv)2 (scFv)
chain: QVQLVQSGPEVKKPGASVKVSCKASGYTFTNSWMNWVRQRPGKGLEWIGRIYPGDGETIYNGKFRVRVTITADESTSTAYMQLSSLRSEDTAVYYCARGYDDYSFAYWGQGTTVTVSSGGGGSGGGGSGGGGSDIVMTQSPLSLPVTPGEPASISCRSSKSLLHSNGNTYLYWFLQKPGQSPQLLIYRMSNLASGVPDRFSGSGSGTDFTLKISRVEAEDVGVYYCMQHIEYPFTFGQGTKLEIKGGGGSGGGGSGGGGSQVQLVQSGPEVKKPGASVKVSCKASGYTFTNSWMNWVRQRPGKGLEWIGRIYPGDGETIYNGKFRVRVTITADESTSTAYMQLSSLRSEDTAVYYCARGYDDYSFAYWGQGTTVTVSSGGGGSGGGGSGGGGSDIVMTQSPLSLPVTPGEPASISCRSSKSLLHSNGNTYLYWFLQKPGQSPQLLIYRMSNLASGVPDRFSGSGSGTDFTLKISRVEAEDVGVYYCMQHIEYPFTFGQGTKLEIK
notes: Humanized sc(Fv)2 without Flag tag, purified on an MG10-GST column; also called humanized VB22B sc(Fv)2 (u2-wz4)
In test [7], B4 gave a Kd of 10.2 nM, a koff of 0.00617 s⁻¹ and a kon of 608000 M⁻¹ s⁻¹.
